# Assay results published in the nanobody polyreactivity screen of Harvey et al. (2022).
# Test: yeast display, Sf9 membrane polyspecificity reagent, FACS + sequencing; frameworks hold sequencing errors
# How it was run: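 Genes from sorted yeast were amplified by colony PCR, read by MiSeq 2 × 250 sequencing and filtered on CDR length. These cells carried a synthetic nanobody library in Saccharomyces cerevisiae BJ5465 and were sorted by FACS into low and high (top ~1%) gates on anti-HA and streptavidin fluorescence. Polyreactivity is labelled according to the gate of origin.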
row,Sequence,polyreactivity (PSR sort gate)
1,QVQLVESGGGLVQAGGSLGLSCAASGIILCYYDMGWYRQAPGKERELVAAITYSGSSTYYADSVKGRFTISRDNAKNTVYLLMNSLKPEDTAVYYCNAGWFYGAIWNYDYWGQGTKVTVSS,low polyreactivity
2,QVPLVESGGGLVQAGGILRLSCAASGRTFRYNVMGCYRQAPGKERELVASISRISGSTYYADSVKGRFTISRDNAKNTVYLQMNSLKPEDTAVYYCAATVKLKHYPYVGFGYWGQGTQVTVSS,high polyreactivity
3,QVQLEESGGGLVQAGGSLRLSCSASGRIFIKYAMGWYRQAPGKEREFVAAISGRGGSTYYADSVKGRFTISRDNAKNTVYLQMNSLKPEDTAVYYWAKRFFSTGTAAGMYYWGQGTQVTVSS,high polyreactivity
4,QFQLLESGRGLVQAGGSLRLSCAASGRTYNVNAMGWYRKAPGKERELVASISSGTSTNYADSVKGRFTITRDNAKNTVYLQLNRLNREDTAVYYCNADFVWNGYSGRIRDYYWGQATQVTVSS,low polyreactivity
5,QVQLVESGGGLVQAGGSLRLSCAASGFTFYKYAMGWYRQAPGKERELVATISWSGARTYYADSVKGRFTISRDNAKNTVYLQMNSLKPEDTAVYYCNARRAYRWKPYTGSAGMDYWGQGTQVTVSS,high polyreactivity
6,QVQLVESGGGLVQAGGSLRLSCAASGLTFWYYGMGWYRQAAGKERELDAAISKTGGRTYYADSVKGRFTISRDNAKNTVYLQMNSLKPEDTAVYYCAADTDVLKGTTGFEYWGQGTQVTVSS,low polyreactivity
7,QVHLVESGGGLVQAGGSLRLSCAASGRTYGVNAMGRYRQAPGKEREFVAAISKRGGSTYYADSVKGRFTISRDNAKNTVYLQMNSLKPEDTAGYYCAADYTTHYWGQGTQVTVSS,high polyreactivity
8,QVQLVESGGGLVQAGGSLRLSCAASGSTFLYYAMGWYRQAPGKERELVASITGSGSNTYYADSVKGRFTISRDNAKNTVYLQMNSLKREDTAVYYCATDPQSDIPSWLWYWGEYDYWGHGTQVTVSS,low polyreactivity
9,QVHLVESGGGLVQAGGRLRLSCAASGSIFPGYAMGWYRQAPGKERELVAAITFSGGSTYYADSLKGRFTISRDNAKNTVYLQMNSLKPEDTAVYYCAAPGWYGGYPSYYEYGYWGQGTQVTVSS,low polyreactivity
10,QVQLVESGGGLVQAGGSLRLSCAASGYISDTNAMGWYRQAPGKEREFVAVISSSVGSTYYADSVKGRFTISRDNAKNTVYLQMNSLKPEDTAVYYCNAEFNTVFLYWSLDSVRGYDYWGQGTQVTVSS,high polyreactivity
11,QVQLVESGGGLVQAGGSLRLSCASSGSNVYIYAMGWYRQAPGKERELVAAISSAGSTYYADSVKGRFTISRDNAKNTVYLQMNSLKPEDTAVYYCAARAQYPGWRYNYWGQGTQVTVSS,high polyreactivity
12,QVQLVESGGGLVQAGGSLRLSCAASGRIFPAYAMGWYRQAPGKERELVAAISWTGTSTYYADSVKGRFTISRDNAKNTVYLQMNSLKPEDTAVYYCAARSYRLRSAYNYWGQGTQVTVSS,high polyreactivity
13,QFQLVESGGGLVQAGGSLRLSSAASGSIFYTNAMGWYRQAPGKEREFVAGITRRGTSTNYADSVKGRFTISRDNAKNSVYLQMNSLKPEVTAVYYCNARYYLYWGQGTQVTVSS,low polyreactivity
14,PVQLVESGGGLVQAGGSLRLSCAASGYTFSYNAMGWYRQAPGKERELVAAIYRGGRTYYADSVKGRFTISRDNAKNTVYLQMNSLKPEDTAVYYCAAKRWTTKNGFYEYPYYYWGQGTQVTVSS,high polyreactivity
15,QVQLVESGGGLVQAGGSLRLSCAASGITFVHYAMGWYRQAPGKERELVAAISSGGGSTYYADSVKGRFTISRDNAKNTVYLQMNSLKPGVTAVYYCAAYVLPYGEYDYWGQGTQVTVSS,low polyreactivity
16,QVQLVESGGGLVQAGGSLRLSCAASGRTFYYYTMGWYRQAPGKERELVAAISVSGGSTYYADSVKGRFTISRDNAKNTVYLQMNSLKPEDTAVYYCAAGDGWGRRYYWGQGTQVTVSS,high polyreactivity
17,QVKLVESGGGLVQAGGSLRISCAASGRTFGYNAMGWYRQAPGKERELVAGISGRTASTYYADSVKGRFTISRDNAKNTVYLQMNSLKPVDTEVYYCATQFGSIYRYDYWGQGTEVTVSS,high polyreactivity
18,QVQLQERGGGLVQAGGRLRLSCMASGSILGDRMSWYRQAPGKEHELVATIYDGGITYYADSMKVRFTISRDNANNTVDLQMKSQRPEDTAVYFCGASFEGYRYHVFCGQGTQVTVSS,low polyreactivity
19,QVQLVESGGGLVQAGGSLRLSCAAYGITFPSYTMGWYRQAPGKERELVATIRNGGSTYYADSVKGRFTISRDNAKNTVYLQMNSLKPEDTAVYYCAAKDTGYGYGVPRLDYWGQGTQVTVSS,low polyreactivity
20,QVQLVESGGGLVQAGGSLRLSCAASGSTFNIYVMGWYRQAPGKERELVAAISTSGRTYYADSVKGRFTISRDNAKNTVYLQMNSLKPEDTAVYYCNAGYWVRKYYHGGYWGQGTQVTVSS,high polyreactivity

row,Sequence,polyreactivity (PSR sort gate)
1,QVQLVESGGGLVQAGGSLRLSCAASGRNFWVYAMGWYRQAPGKERELVAAISLSGGRTYYADSVKGRFTITRDKAKNNVNLQMNSLKPEDTAVYYCYAVYPKRGGGRIVDYWGQGTQVTVSS,high polyreactivity
2,QVQLVESGGGLVQAGGSIRLSCAASGSTFSHNAMGWYRQAPGKERELVAAIRWNGGSTYYADSVKGRFTISRDNAKNTVYLQMNSLKPEDTAVYYCAKENHYFTQGYGYWGQGTQVTVSS,low polyreactivity
3,QVQLLESGGGLVQAGGSLRLSCAASGLTYYYAMGWYRQAPGKERELVAAISYSGGRTNYADSVKGRFTISRDNAKNTVYLQMNSLKPEDTAVYFCAAVGPRTDYSGYRYYYWVQGTQVTVSS,high polyreactivity
4,QLQREESGGGLVQAGGSLRLSCAASGSTFEKNAMGWYRQAPAKERELVAALSNGVSTYDADSVKGRFPISRDNAKNSVYLLMNSLKPEDTAVYYCAADLFFGAETVYYAKFDYWGQGTQVTVSS,low polyreactivity
5,QVQLVESGGGLVQAGGSLRLSCAASGFTFHNNVMGWYRQAPGKERELVATISKSGGSTYYADSVKGRFTISRDNAKNTVYLQMNSLKPEDTAVYYCAALYPYQYVRGGYWGQGTQVTVSS,high polyreactivity
6,QVQLVESGGGLVQEGGSLRLSCAASGSIFGWYAMGWYRQAPGKEWELVAAIRRGGSTNYADSVKGRFTISRDNAKNTVYLQMNSLKAEVTAVYYCAAGKSGYSKRIFRYSFDYWGQGTQVTVSS,high polyreactivity
7,QVQLVESGGGLVQAGGSLRLSCAASGSTFYANAMGWYRQAPGKERELVAEISFSGASTFYADSVKGRFTISRDNAKNTVYLQMNSLKPEDTAVYYCATANPSVVGFDYWGQGTQVTVSS,low polyreactivity
8,QVQLVESGGGLVQAGGSLRLSCAASGRIFDANAMGWYRQAPGKERELVAAITVSGGSTYYADSVKGRFTISRDNAKNTVYLEMNSLKPEDTAVYYCAKSLVPWWYKVDYDYWGQGTQVTVSS,low polyreactivity
9,QVQLVESGGGLVQAGGSLSLSCAASGYIFGPYDMGWYRQAPGKERELVAVIDWSGGSTYYADSVKGRFTISRDNAKNTFYLQMNSLKPEDTAVYYCAADISWGVSQFDYWGQGTQVTVSS,low polyreactivity
10,QVQLVESGGGLVQAGGSLRLSCAASGRTSRHYAMGWYRQAPGKERELVAAISRSGGSTYYADSVKGRFTISRDNAKNTFYLQMNILKPDDSAVYYCNKDLKYYTSTYDYWGQGTQVTVSS,high polyreactivity
11,QVQLVESGGGLVQAGGSLRLSCAASGRIFSYYAMGWYRQAPGKERELVAAISRTGGTTYYADSVKGRFTISRDTAKNTVFLQMNSLKPEDTAVYYCNAVKAPYLRYDYWGQGTQVTVSS,high polyreactivity
12,QVQLVESGGGLVQAGGSLRLSCAASGSIFSPNAMGWNRQAPGKERELVAAISRRGGRTYYADSVKGRFTISRDNAKNTVYFQMNSLKPEDTAVYYCNAVWYSDTYTNPQYDYWGQGTQVTVSS,high polyreactivity
13,QVQLVESGGGLVQAGGSLRLSCAASGSIISRTVMGWYRQAPGKEREFVATISRSGGITYYADSVKGRFTISRDNAKNTVYLQMNSLKPEDTAVYYCAAGKFVSFPSHYGYWGQGTQVTVSS,high polyreactivity
14,QVQLVESGGGLVQAGGSLRLSCAASGGTIVWNAMGWYRQAPGKEREFVAAITSSGGSTYYADSVKGRFTITRDYAKNTVYLQINSLKPEDTAVDYCNVDTHSSYEFNSWGQGTQVTVSS,low polyreactivity
15,QVQLVESGGGLVQAGGSLRLSCAASGFTIVTYAMGWYRQAPGKERELVAAISKSGGTTYYADSVKGRFTISRDNAKNTVYLQMNSLKPEDTAVYYCNKRWYIARPVDRYRYYYWGQGTQVTVSS,high polyreactivity
16,QVQLVESGGGLVQAGGSLRLSCAASGFIFANYAMGWYRQAPGKERELVAAISTSGSSTYYADSVKGRFTISRDNAKNTVYLQMNSLKPEDTAVYYCNTYLTIWGYFYGYDYWGQGTQVTVSS,high polyreactivity
17,QVQLVESGGGLVQAGGSLRLSCAASGLTFLVNAMGWYRQAPGKEREFVSVITTDGGGTYYADSVKGRFTISRDNAKNTVYLQMNSLKPEDTAVYYCAAESKYRTAATSYRLDYDYWGQGTQVTVSS,low polyreactivity
18,QVQLVESGGGLVQAGGSHRLSCSASGSNFRDYAMGWYRQAPGKERELVAAISWSSSRTYYADSVKGRFTISRDNAKNTVYLQMNSLKPEDTAVYYCNKLSIWSYYFGPYGYDYWGQGTQVTVSS,low polyreactivity
19,QVQLVESGGGLVQAGGSLRLSCASSGGTFISYAMGWYRQAPGKERELVAAISRGGSSTYYADSVKGRFTISRDNAKNTVYLQMNSLKPEDTAVYYCNKAYHRRDSEFGYWGQGTQVTVSS,high polyreactivity
20,QVQLVESGGGLVQAGGSLRLSCAASGFTYYHNVMGWYRQAPGKERELVAAISSGGDTTYYADSVKGRFTISRDNAKNTVSLQKNSLKPEDTAVYYCNADRQIGRYYHFDYWGQGTQVSVSS,high polyreactivity
